In publication PMC8358021, “Structural basis of the complementary activity of two ketosynthases in aryl polyene biosynthesis” (Scientific Reports, 2021):

Legend:
[1] = target: T1, AbApeO-AbApeC heterodimer (ketosynthase-chain length factor complex of the aryl polyene biosynthesis gene … (Acinetobacter baumannii)); assay: ITC; 2.0 mM holo ACP1 or holo ACP2 injected (19 injections of 3 µl) into 0.1 mM AbApeO-AbApeC or AbApeR; 25 °C; 40 mM potassium phosphate pH 7.0; 2 mM 2-mercaptoethanol; conditions: both partners purified
T1 construct: ApeO, ketosynthase of the APE biosynthesis gene cluster, Acinetobacter baumannii (pathogenic strain, global clone 2); ApeC, chain length factor of the APE biosynthesis gene cluster, Acinetobacter baumannii (pathogenic strain, global clone 2); The His6 tag on AbApeO is said to be not cleavable; The complex was formed by co-expression and used as one molecule in ITC; also called ApeO-ApeC; …

[2] = target: T2, AbApeR (FabB-like homodimeric ketosynthase of the A. baumannii APE gene cluster) (Acinetobacter baumannii); assay: as above; conditions: both partners purified
T2 construct: ApeR, ketoacyl-ACP synthase I (FabB)-like ketosynthase of the APE biosynthesis gene cluster, Acinetobacter baumannii (pathogenic strain, global clone 2); not shown: His6, N-terminal, cleaved

B1: holo ACP2 (ApeF), acyl carrier protein 2 of the A. baumannii APE gene cluster (natural protein)
chain: MSNLADELKQMIIDVLALEDITIADIDTEAPLFGEGLGLDSIDALELGLALKKRYNIHLNAESDETKQHFKSIQSLVALVEAQQKS
modifications: 4'-phosphopantetheine (holo form)
[1]
  stoichiometry N: 1.21
[2]
  Kd: 41 µM
  stoichiometry N: 0.71
